Results: US20230279085A1 (ABL BIO, published 2023)
Substitutions are numbered along the chain they refer to. Each block holds one binder with its values, some of them ahead of it.

Key:
[1] = target: alpha-synuclein monomer (Homo sapiens, UniProt P37840 1-140); experiment: SPR (BIAcore), antibody captured on Protein A, sample alpha-Syn monomer, 1:1 binding fit printed under a sensorgram that shows no binding (see non_binding)
Method: The quantitative analysis of the binding of alpha-synuclein antibody prepared in Example 1 to monomer and aggregate antigens was performed using BIAcore analysis.
(§1) The used instrument was T200 (GE Healthcare, S/N: 1565888). Protein A is used as a chip (GE Healthcare, Cat. 29-1275-56). 10 mM Glycine-HCl pH 1.5 (GE Healthcare, Cat. BR-1003-54) was regeneration buffer. The running buffer, analyte dilution, and the sample dilution buffer were HBS-EP. The α-syn antibodies (3A9, 9B11 and 11F11) prepared in Example 1 were diluted with 1×HBS-EP (GE Healthcare, Cat. BR-1006-69), and alpha-synuclein monomer (1 mg/ml) and fibril protein (3 mg/ml) were serially diluted in duplicate and analyzed at 6 concentrations (0, 0.39, 1.56, 6.25, 25, 100 nM) including 0 nM in total. For the capture, the monomer was for RU of 800 (theoretical), and a fibril was for RU of 100 (theoretical). The capture phase was performed at contact time of 60 seconds, a flow rate of 30 μl/min, and a stabilization period of 180 seconds. The association phase was performed at the association time of 120 seconds and the flow rate was 30 μl/min. The dissociation phase was performed at the dissociation time of 360 seconds and the flow rate of 30 μl/min. The regeneration phase was performed twice time at the regeneration time of 240 seconds (primary) and 60 seconds (secondary) and a flow rate of 30 μl/min. […]

[2] = target: alpha-synuclein aggregate (fibril) (Homo sapiens, UniProt P37840 1-140); experiment: SPR (BIAcore), Protein A capture, file ProteinA-Fibril-main-5th, sample aSyn180330, 1:1 binding fit, 25 °C
Method: as §1, with “μl/min.” for “μl/min. The regeneration phase was performed twice time at the regeneration time of 240 seconds (primary) and 60 seconds (secondary) and a flow rate of 30 μl/min.”
The BIAcore analysis was performed to quantitatively analyze the binding affinity of the chimeric antibodies (Ch11F11) obtained in Example 8, and the humanized antibodies (Hu11F11) obtained in Example 9, according to the substantially same method of Example 2-3. […]

koff [1]: 2.65e-06 s⁻¹ | kon [1]: 2.07e+06 M⁻¹ s⁻¹
B1: Ch11F11 chimeric antibody (antibody, human IgG1, V domains shown)
VH: EVQLQESGGGLVQPGGSLRLSCATSGFTFSDFYMEWVRQPPGKRLEWIAASRNKANDYTTEYSASVKGRFIVSRDTSQSILYLQMNALRAEDTAIYYCARDAHGKPFAYWGQGTLVTVSA
VL: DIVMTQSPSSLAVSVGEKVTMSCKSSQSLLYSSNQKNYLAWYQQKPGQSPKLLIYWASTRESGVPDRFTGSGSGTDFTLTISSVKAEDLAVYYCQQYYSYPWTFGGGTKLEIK
notes: Chimeric human IgG1; also called chimeric 11F11; Ch11F11(-RD)

koff [2]: 0.000266 s⁻¹
B2: hu11F11(ver.3) (antibody, IgG1, V domains shown)
VH: B1 VH with Q5V, I71T, V72I, Q78K, I80S, A87S, L115T, A120S
VL: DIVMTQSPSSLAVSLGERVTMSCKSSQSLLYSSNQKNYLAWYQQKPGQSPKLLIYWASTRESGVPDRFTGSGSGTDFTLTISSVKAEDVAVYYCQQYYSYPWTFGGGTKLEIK
notes: Humanized IgG1; also called Hu11F1_ver3; Hu11F11_v3
